Assay results taken from patent US8816055 (DYAX, dated 2014).

What was measured:
[1] = target: T1, pKal catalytic domain Mutant 1 (human, UniProt P03952 391-638, limits assumed); assay: Ki,app, enzyme inhibition
T1 construct: catalytic domain with His tag from Pichia pastoris

[2] = target: T2, pKal catalytic domain Mutant 2 (human, UniProt P03952 391-638, limits assumed); assay: Ki,app, enzyme inhibition
T2 construct: catalytic domain with His tag from Pichia pastoris

[3] = target: pKal catalytic domain Mutant 4 (human, UniProt P03952 391-638); assay: Ki,app, enzyme inhibition
pKal catalytic domain Mutant 4, sequence (P03952 other isoform, or with tags, fused parts or gaps mutant): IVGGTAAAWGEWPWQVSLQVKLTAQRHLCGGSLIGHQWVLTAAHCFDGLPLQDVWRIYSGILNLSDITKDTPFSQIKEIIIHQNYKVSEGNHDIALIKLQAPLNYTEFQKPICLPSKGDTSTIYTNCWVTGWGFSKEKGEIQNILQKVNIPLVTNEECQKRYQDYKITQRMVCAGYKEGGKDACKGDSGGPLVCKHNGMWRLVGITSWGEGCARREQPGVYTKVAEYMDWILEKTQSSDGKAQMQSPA

[4] = target: T3, human plasma kallikrein (active form) (human, UniProt P03952 20-390; P03952 391-638); assay: ELISA, biotinylated pKal / streptavidin background
T3 construct: two disulfide linked chains; biotinylated in the ELISA; also called pKal; hpKal
T3 sequence (P03952 20-390, chain 1 of 2): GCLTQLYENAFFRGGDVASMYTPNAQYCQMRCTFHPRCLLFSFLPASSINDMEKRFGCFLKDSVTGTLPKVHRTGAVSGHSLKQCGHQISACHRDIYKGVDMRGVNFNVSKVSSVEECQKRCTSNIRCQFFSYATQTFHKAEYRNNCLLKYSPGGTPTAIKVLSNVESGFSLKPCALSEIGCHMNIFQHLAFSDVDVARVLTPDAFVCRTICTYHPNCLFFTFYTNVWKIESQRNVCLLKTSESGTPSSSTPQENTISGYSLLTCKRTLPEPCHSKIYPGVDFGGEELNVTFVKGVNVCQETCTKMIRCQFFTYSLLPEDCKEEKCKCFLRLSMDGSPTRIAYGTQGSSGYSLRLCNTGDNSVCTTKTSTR
T3 sequence (P03952 391-638, chain 2 of 2): as the sequence (P03952 other isoform, or with tags, fused parts or gaps mutant) above, with A6N, A7S, A8S counted along it
Description: Abbreviations used: "T/B" is the ELISA signal obtained using of the "target" (biotinylated plasma kallikrein) divided by the ELISA signal of the "background" (streptavidin); both of which were coated on microtiter plates. "nd" is not determined. The symbol "q" refers to the amber suppressible stop codon (TAG), which is translated as glutamine (Q) in strains of E. coli such as the TG1 cells that were used to express the Fab fragments.

T2 sequence (P03952 other isoform, or with tags, fused parts or gaps mutant limits assumed): as the sequence (P03952 other isoform, or with tags, fused parts or gaps mutant) above, with A6N, A7S, A8S, R161A, Q163A, Y165A, T168A, R170A counted along it
T1 sequence (P03952 other isoform, or with tags, fused parts or gaps mutant limits assumed): as the sequence (P03952 other isoform, or with tags, fused parts or gaps mutant) above, with A6N, A7S, A8S, S88A, N91A, S135A, K136A counted along it

| Binder | Ki [1] [nM] | Ki [2] [nM] | Ki [3] [nM] | ELISA (T/B) [4] [T/B] |
| --- | --- | --- | --- | --- |
| M6-D09 (Fab, V domains shown, also called M06-D09; 559A-M06-D09) VH: EVQLLESGGGLVQPGGSLRLSCAASGFTFSFYYMVWVRQAPGKGLEWVSVIYPSGGITVYADSVKGRFTISRDNSKNTLYLQMNSLRAEDTAVYYCARDKWAVMPPYYYYAMDVWGQGTTVTVSS VL: DIQMTQSPSSLSASVGDRVTITCRASQSIRNYLNWYQQKPGKAPNLLIYAASTLQSGVPARFSGSGSGTDFTLTISSLQPEDFATYYCQQLSGYPHTFGQGTKLEIK | 3.4 | 13.5 | 2.9 |  |
| M28-D02 (Fab, V domains shown) VH: EVQLLESGGGLVQPGGSLRLSCAASGFTFSWYPMQWVRQAPGKGLEWVSYIYPSGGGTDYADSVKGRFTISRDNSKNTLYLQMNSLRAEDTATYYCATSSGWLGDAFDIWGQGTMVTVSS VL: DIQMTQSPSSLSASEGDMVTITCRTSRRIGTYLNWYQQKPGKAPKLLIYGASSLQSGVPSRFSGSGSGTDFTLTVSSLQPEDVGTYYCQQSFSSPWTFGPGTKVEIK |  |  |  | 3.7 |
| X101-A01 (antibody, V domains shown, also called 559A-X0101-A01) VH: EVQLLESGGGLVQPGGSLRLSCAASGFTFSHYLMTWVRQAPGKGLEWVSYISPSGGHTIYADSVKGRFTISRDNSKNTLYLQMNSLRAEDTAVYYCARVARGIAARSRTSYFDYWGQGTLVTVSS VL: EIVLTQSPGTLSLSPGERATLSCRTSQFVNSNYLAWYQQKPGQAPRLLIYGASSRATGIPDRFSGSGSGTDFTLTISRLEPEDFAVYYCQQSSRTPWTFGQGTKVEIK | 14 | 20 | 0.25 |  |
| X115-B07 (antibody, V domains shown, also called 559A-X115-B07; 559A-X0115-B07) VH: EVQLLESGGGLVQPGGSLRLSCAASGFTFSHYLMTWVRQAPGKGLEWVSYISPSGGHTIYADSVKGRFTISRDNSKNTLYLQMNSLRAEDTAVYYCAMVGQGIRGRSRTSYFAQWGQGTLVTVSS VL: EIVLTQSPGTLSLSPGERATLSCRTSQFVNSNYLAWYQQKPGQAPRLLIYGASSRATGIPDRFSGSGSGTDFTLTISRLEPEDFAVYYCQQSSRTPWTFGQGTKVEIK | 4.7 | 47 | 0.14 |  |
| X115-F02 (Fab, V domains shown, also called 559A-X115-F02; 559A-X0115-F02) VH: EVQLLESGGGLVQPGGSLRLSCAASGFTFSHYIMMWVRQAPGKGLEWVSGIYSSGGITVYADSVKGRFTISRDNSKNTLYLQMNSLRAEDTAVYYCAYRRIGVPRRDEFDIWGQGTMVTVSS VL: DIQMTQSPSTLSASVGDRVTITCRASQSISSWLAWYQQKPGKAPKLLIYKASTLESGVPSRFSGSGSGTEFTLTISSLQPDDFATYYCQQYNTYWTFGQGTKVEIK | 0.14 | 5.9 | 0.1 |  |

Now from value to binder:

| Ki [1] [nM] | Ki [2] [nM] | Ki [3] [nM] | ELISA (T/B) [4] [T/B] | Binder |
| --- | --- | --- | --- | --- |
| 0.09 | 1.1 | 0.8 |  | M35-G04 (Fab, V domains shown, also called 559A-M35-G04; 559A-M0035-G04) VH: EVQLLESGGGLVQPGGSLRLSCAASGFTFSYYHMSWVRQAPGKGLEWVSVISPSGGSTKYADSVKGRFTISRDNSKNTLYLQMNSLRAEDTAVYYCARGGSSDYAWGSYRRPYYFDYWGQGTLVTVSS VL: DIQMTQSPATLSLSPGERATLSCRASQSVSSYLAWYQQKPGQAPRLLIYDASNRATGIPARFSGSGSGTDFTLTISSLEPEDFAVYYCQQRSNWPRGFTFGPGTKVDIK |
| 0.4 | 2.2 | 0.3 |  | X115-G04 (antibody, V domains shown, also called 559A-X115-G04; 559A-X0115-G04) VH: EVQLLESGGGLVQPGGSLRLSCAASGFTFSHYIMMWVRQAPGKGLEWVSGIYSSGGITVYADSVKGRFTISRDNSKNTLYLQMNSLRAEDTAVYYCAYRRTGVPRRDEFDIWGQGTMVTVSS VL: DIQMTQSPSTLSASVGDRVTITCRASQSISSWLAWYQQKPGKAPKLLIYKASTLESGVPSRFSGSGSGTEFTLTISSLQPDDFATYYCQQYNTYWTFGQGTKVEIK |
| 0.26 | 2.5 | 0.12 |  | X115-D01 (antibody, V domains shown, also called 559A-X115-D01; 559A-X0115-D01) VH: EVQLLESGGGLVQPGGSLRLSCAASGFTFSIYSMHWVRQAPGKGLEWVSSIYPSRGMTWYADSVKGRFTISRDNSKNTLYLQMNSLRAEDTAVYYCAYRRTGIPRRDAFDIWGQGTMVTVSS VL: DIQMTQSPSTLSASVGDRVTITCRASQSISSWLAWYQQKPGKAPKLLIYKASTLESGVPSRFSGSGSGTEFTLTISSLQPDDFATYYCQQYNTYWTFGQGTKVEIK |
| 0.23 | 3.7 | 0.13 |  | X115-A03 (antibody, V domains shown, also called 559A-X115-A03; 559A-X0115-A03) VH: EVQLLESGGGLVQPGGSLRLSCAASGFTFSHYIMMWVRQAPGKGLEWVSGIYSSGGITVYADSVKGRFTISRDNSKNTLYLQMNSLRAEDTAVYYCAWRRIGVPRRDSFDMWGQGTMVTVSS VL: DIQMTQSPSTLSASVGDRVTITCRASQSISSWLAWYQQKPGKAPKLLIYKASTLESGVPSRFSGSGSGTEFTLTISSLQPDDFATYYCQQYNTYWTFGQGTKVEIK |
| 0.27 | 0.34 | 0.39 |  | M29-D09 (Fab, V domains shown, also called 559A-M29-D09 (sFab); 559A-M0029-D09) VH: EVQLLESGGGLVQPGGSLRLSCAASGFTFSWYTMVWVRQAPGKGLEWVSYIYPSGGATFYADSVKGRFTISRDNSKNTLYLQMNSLRAEDTAVYYCAMGSYDYIWGFYSDHWGQGTLVTVSS VL: QSALTQPPTVSVSPGQTARITCSGNKLGDKYVAWYQQKPGQSPMLVIYQDTKRPSRVSERFSGSNSANTATLSISGTQALDEADYYCQAWDSSIVIFGGGTRLTVL |
| 0.23 | 0.1 | 0.21 |  | M145-D11 (Fab, V domains shown, also called 559A-M145-D11 (sFab); 559A-M0145-D11) VH: EVQLLESGGGLVQPGGSLRLSCAASGFTFSHYRMSWVRQAPGKGLEWVSSIYPSGGRTVYADSVKGRFTISRDNSKNTLYLQMNSLRAEDTAVYYCAKDKFEWRLLFRGIGNDAFDIWGQGTMVTVSS VL: QSVLTQPPSVSVSPGQTASITCSGDKLGDKYTSWYQQRPGQSPVLVIYQDIKRPSGIPERFSGSNSGNTATLTISGTQAMDEADYYCQAWDSPNARVFGSGTKVTVL |
